Measurements reported in US20200206371A1 (WAYNE STATE UNIVERSITY, published 2020).

T1: murine IFN-γ (recombinant IFN-γ) (mouse, UniProt P01580 23-155)
T1 construct: AN-18 is described as a rat mAb to murine IFN-γ; also called rIFN-γ; interferon gamma
T1 sequence (looked up): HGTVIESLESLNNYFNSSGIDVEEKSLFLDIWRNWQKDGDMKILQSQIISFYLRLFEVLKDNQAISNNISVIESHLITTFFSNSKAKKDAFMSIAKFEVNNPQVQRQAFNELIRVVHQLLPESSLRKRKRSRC


Assays:
[1] = biological target: T1, murine IFN-γ (recombinant IFN-γ); test: Octet (BLI); format not stated; diabody (scFv homodimer), not full-length antibody
[2] = biological target: T1, murine IFN-γ (recombinant IFN-γ); test: Octet (BLI); format not stated; full-length AN18, not diabody

| Kd [1] | Kd [2] | Molecule |
| --- | --- | --- |
| 37.9 nM |  | anti-IFN-γ diabody (homodimer of the single chain Fv derived from anti-IFNγ clone AN18, made in CHO cells) |
|  | 28.2 nM | AN-18 (anti-IFNγ, rat IgG1, kappa, eBioscience), full-length (antibody, V domains shown, Bought rat IgG1, kappa monoclonal antibody; also called full-length AN18; anti-mouse IFN-γ mAb clone AN-18) VH: QVQLKESGPGLVQPSQTLSLTCTVSGFSLDSYNVHWVRQPPGKGLEWMGRMKYNGDTSYNSALKSRLRISRDTSKNQVFLKMNSLQTDDTGTYYCTRDWHYGYPSPYFEFWGQGVMVTVSS VL: DVQMTQSPSYLAASPGESVSISCKASKNINTYLAWYQEKPGKTNKLLIYSGSTLQSGTPSRFSGSGSGTDFTLTIRSLEPEDFAVYYCQQHNEYPLTFGSGTKLEVKR |
